What was measured:
[1] = biological target: Saccharomyces cerevisiae ADAT3 (S. cerevisiae)
[2] = biological target: ScADAT2 (TAD2);ScADAT3 Del30-148 (Saccharomyces cerevisiae;Saccharomyces …, UniProt P47058;Q9URQ3 1-250;1-322, |del30-148); assay: EMSA; 2 uM tRNA, varied enzyme:tRNA molar ratios; EMSA: 20 mM Tris-HCl pH 8.0, 1 mM DTT, 2 uM tRNA, on ice 60 min; 6% native PAGE, 40 mM Tris-HCl pH 9.0 running buffer; conditions: protein: recombinant;recombinant; tags: none (untagged in co-expression);N-terminal His6, cleaved (PreScission); copies: 1;1; label: none; tRNA cloverleaf
[3] = biological target: ScADAT2 (TAD2);ScADAT3 K72A/R73A (Saccharomyces cerevisiae;Saccharomyces …, UniProt P47058;Q9URQ3 1-250;1-322, |K72A;R73A); assay: as above; conditions: protein: recombinant;recombinant; tags: none (untagged in co-expression);N-terminal His6, cleaved (PreScission); copies: 1;1; label: none; tRNA cloverleaf
[4] = biological target: ScADAT2 (TAD2);ScADAT3 R75A/K76A (Saccharomyces cerevisiae;Saccharomyces …, UniProt P47058;Q9URQ3 1-250;1-322, |R75A;K76A); assay: as above; conditions: protein: recombinant;recombinant; tags: none (untagged in co-expression);N-terminal His6, cleaved (PreScission); copies: 1;1; label: none; tRNA cloverleaf
[5] = biological target: ScADAT2 (TAD2);ScADAT3 (TAD3) WT (Saccharomyces cerevisiae;Saccharomyces …, UniProt P47058;Q9URQ3 1-250;1-322, |); assay: as above; conditions: protein: recombinant;recombinant; tags: none (untagged in co-expression);N-terminal His6, cleaved (PreScission); copies: 1;1; label: none; tRNA cloverleaf
[6] = biological target: ScADAT2 (TAD2);ScADAT3 K50A (Saccharomyces cerevisiae;Saccharomyces …, UniProt P47058;Q9URQ3 1-250;1-322, |K50A); assay: as above; conditions: protein: recombinant;recombinant; tags: none (untagged in co-expression);N-terminal His6, cleaved (PreScission); copies: 1;1; label: none; tRNA cloverleaf
Sequence of ScADAT2 (TAD2);ScADAT3 K50A (P47058 whole entry, chain 1 of 2): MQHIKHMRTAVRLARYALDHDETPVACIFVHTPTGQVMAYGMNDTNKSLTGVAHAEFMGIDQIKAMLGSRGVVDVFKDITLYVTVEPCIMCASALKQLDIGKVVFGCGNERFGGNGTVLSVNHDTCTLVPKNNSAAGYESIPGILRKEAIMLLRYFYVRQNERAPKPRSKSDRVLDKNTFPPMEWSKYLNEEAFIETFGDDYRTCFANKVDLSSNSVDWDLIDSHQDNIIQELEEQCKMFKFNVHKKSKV
Sequence of ScADAT2 (TAD2);ScADAT3 K50A (Q9URQ3 whole entry K50A, chain 2 of 2): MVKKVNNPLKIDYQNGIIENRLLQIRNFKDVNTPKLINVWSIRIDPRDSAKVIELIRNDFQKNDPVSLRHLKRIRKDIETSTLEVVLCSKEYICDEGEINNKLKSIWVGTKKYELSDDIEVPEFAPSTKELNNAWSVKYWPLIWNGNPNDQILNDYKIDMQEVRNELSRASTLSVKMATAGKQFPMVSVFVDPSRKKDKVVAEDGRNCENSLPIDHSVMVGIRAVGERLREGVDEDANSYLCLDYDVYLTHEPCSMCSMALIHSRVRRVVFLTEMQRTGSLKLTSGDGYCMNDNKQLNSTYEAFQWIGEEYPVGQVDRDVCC

Sequence of ScADAT2 (TAD2);ScADAT3 R75A/K76A (P47058 whole entry, chain 1 of 2): as the sequence (P47058 whole entry, chain 1 of 2) above
Sequence of ScADAT2 (TAD2);ScADAT3 R75A/K76A (Q9URQ3 whole entry R75A/K76A, chain 2 of 2): as the sequence (Q9URQ3 whole entry K50A, chain 2 of 2) above, with A50K, R75A, K76A counted along it
Sequence of ScADAT2 (TAD2);ScADAT3 (TAD3) WT (P47058 whole entry, chain 1 of 2): as the sequence (P47058 whole entry, chain 1 of 2) above
Sequence of ScADAT2 (TAD2);ScADAT3 (TAD3) WT (Q9URQ3 whole entry, chain 2 of 2): as the sequence (Q9URQ3 whole entry K50A, chain 2 of 2) above, with A50K counted along it
Sequence of ScADAT2 (TAD2);ScADAT3 K72A/R73A (P47058 whole entry, chain 1 of 2): as the sequence (P47058 whole entry, chain 1 of 2) above
Sequence of ScADAT2 (TAD2);ScADAT3 K72A/R73A (Q9URQ3 whole entry K72A/R73A, chain 2 of 2): as the sequence (Q9URQ3 whole entry K50A, chain 2 of 2) above, with A50K, K72A, R73A counted along it
Sequence of ScADAT2 (TAD2);ScADAT3 Del30-148 (P47058 whole entry, stated change not applied, chain 1 of 2): as the sequence (P47058 whole entry, chain 1 of 2) above
Sequence of ScADAT2 (TAD2);ScADAT3 Del30-148 (Q9URQ3 other isoform, or with tags, fused parts or gaps |del30-148, chain 2 of 2): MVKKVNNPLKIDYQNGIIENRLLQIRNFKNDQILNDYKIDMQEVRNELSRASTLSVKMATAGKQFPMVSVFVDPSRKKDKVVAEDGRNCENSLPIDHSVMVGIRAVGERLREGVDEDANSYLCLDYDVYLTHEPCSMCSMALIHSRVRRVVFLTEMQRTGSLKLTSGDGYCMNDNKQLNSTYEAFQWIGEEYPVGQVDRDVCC

For ScADAT2/I89A (enzyme), the in vitro deamination of tRNA^Ala by the heterodimer (30 nM enzyme), coupled to cleavage by EcEndoV, against WT [1] was over 50 % activity.

In the case of ScADAT2/S93A (enzyme), the in vitro deamination of tRNA^Ala by the heterodimer (30 nM enzyme), coupled to cleavage by EcEndoV, against WT [1] is reported as over 50 % activity.

For ScADAT2/F57A (enzyme), the in vitro deamination of tRNA^Ala by the heterodimer (30 nM enzyme), coupled to cleavage by EcEndoV, against WT [1] was over 50 % activity.

For ScADAT2/S69A (enzyme), the in vitro deamination of tRNA^Ala by the heterodimer (30 nM enzyme), coupled to cleavage by EcEndoV, against WT [1] was over 50 % activity.

ScADAT2/V52A (enzyme) showed an in vitro deamination of tRNA^Ala by the heterodimer (30 nM enzyme), coupled to cleavage by EcEndoV, against WT [1] of over 50 % activity.

ScADAT2/L119A/V121A (enzyme) gave an in vitro deamination of tRNA^Ala by the heterodimer (30 nM enzyme), coupled to cleavage by EcEndoV, against WT [1] of over 50 % activity.

In the case of ScADAT2/L49A (enzyme), the in vitro deamination of tRNA^Ala by the heterodimer (30 nM enzyme), coupled to cleavage by EcEndoV, against WT [1] is reported as over 50 % activity.

With ScADAT2/Q97A (enzyme) the in vitro deamination of tRNA^Ala by the heterodimer (30 nM enzyme), coupled to cleavage by EcEndoV, against WT [1] was over 50 % activity.

“ScADAT2-D124A/T125A/C126A/T127A (enzyme)” gave an in vitro deamination of tRNA^Ala by the heterodimer (30 nM enzyme), coupled to cleavage by EcEndoV, against WT [1] of over 50 % activity.

B1: tRNAAla (structured_RNA)
RNA: GGGCGUGUGGCGUAGUCGGUAGCGCGCUCCCUUAGCAUGGGAGAGGUCUCCGGUUCGAUUCCGGACUCGUCCACCA
modifications: none (in vitro transcript)
B1: no binding [2]; no binding [3]; no binding [4]. B1: binds [5]; no binding [6].

Reference: PMC7713142, “Crystal structure of the yeast heterodimeric ADAT2/3 deaminase”
